Bridges are numbered along the chain shown (N, C = ends). DBX = not defined here
How the values were obtained:
human B7-H3 (hB7-H3) [1] = target: T1, human B7-H3 (hB7-H3) (human, UniProt Q5ZPR3 29-461, limits assumed); test: SPR; oxidized (with disulfide bridge)
T1 construct: The construct is not described
T1 sequence (looked up): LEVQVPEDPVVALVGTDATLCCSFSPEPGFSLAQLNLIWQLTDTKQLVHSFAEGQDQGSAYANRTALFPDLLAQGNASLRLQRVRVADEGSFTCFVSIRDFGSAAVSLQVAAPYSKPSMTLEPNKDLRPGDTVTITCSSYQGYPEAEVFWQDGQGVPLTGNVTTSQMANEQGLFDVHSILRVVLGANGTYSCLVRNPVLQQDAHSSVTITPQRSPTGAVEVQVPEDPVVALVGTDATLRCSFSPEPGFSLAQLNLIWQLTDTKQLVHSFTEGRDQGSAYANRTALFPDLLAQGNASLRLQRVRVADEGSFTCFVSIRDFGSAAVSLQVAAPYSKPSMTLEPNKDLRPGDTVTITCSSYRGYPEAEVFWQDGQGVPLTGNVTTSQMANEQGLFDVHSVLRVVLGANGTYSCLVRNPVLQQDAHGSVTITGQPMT

human B7-H3 (hB7-H3) [2] = target: T1, human B7-H3 (hB7-H3); test: SPR; hB7-H3 as ligand on the chip, peptide as analyte
murine B7-H3 (mB7-H3) [3] = target: T2, murine B7-H3 (mB7-H3) (murine, UniProt Q8VE98 29-244, limits assumed); test: SPR; mB7-H3 as ligand on the chip, peptide as analyte
T2 construct: The construct is not described
T2 sequence (looked up): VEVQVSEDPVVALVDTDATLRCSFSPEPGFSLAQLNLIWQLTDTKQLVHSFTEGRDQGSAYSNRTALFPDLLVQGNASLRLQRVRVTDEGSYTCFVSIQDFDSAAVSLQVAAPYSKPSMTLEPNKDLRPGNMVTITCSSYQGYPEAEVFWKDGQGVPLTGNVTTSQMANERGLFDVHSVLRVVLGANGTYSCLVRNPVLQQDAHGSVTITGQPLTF

[4] = target: T3, biotinylated B7-H3 (B7-H3b), immune checkpoint protein; test: SPR, Biacore 8K single-cycle kinetics, biotinylated B7-H3 on NeutrAvidin chip, peptide as analyte
T3 construct: also called biotin immobilized B7-H3; streptavidin immobilized B7-H3
T3 sequence (Q5ZPR3 whole entry, species assumed, looked up): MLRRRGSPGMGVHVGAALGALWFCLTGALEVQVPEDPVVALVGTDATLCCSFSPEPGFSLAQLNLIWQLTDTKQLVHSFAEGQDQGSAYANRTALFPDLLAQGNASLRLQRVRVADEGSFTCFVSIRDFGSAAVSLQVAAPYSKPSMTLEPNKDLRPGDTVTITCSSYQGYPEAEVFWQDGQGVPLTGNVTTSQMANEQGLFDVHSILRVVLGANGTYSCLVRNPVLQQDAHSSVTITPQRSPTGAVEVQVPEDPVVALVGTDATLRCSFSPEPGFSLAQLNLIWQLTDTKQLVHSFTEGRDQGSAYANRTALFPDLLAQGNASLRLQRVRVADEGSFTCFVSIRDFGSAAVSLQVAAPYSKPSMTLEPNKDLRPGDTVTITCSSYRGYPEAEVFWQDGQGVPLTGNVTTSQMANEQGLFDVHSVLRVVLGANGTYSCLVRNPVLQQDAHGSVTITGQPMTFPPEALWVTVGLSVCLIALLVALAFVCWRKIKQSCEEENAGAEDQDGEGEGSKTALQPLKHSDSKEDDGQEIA
Experimental: Surface Plasmon Resonance (SPR) analysis. Binding kinetics between our selected peptide (and variants) and biotinylated B7-H3 (B7-H3b) were assessed through SPR analysis using a BIACORE 8K SPR system (GE Healthcare). The running buffer was 1×PBS pH7.5, 0.05% TWEEN® 20 and all analysis was carried out at 25° C. B7-H3b was loaded onto a NeutrAvidin SPR Chip (Series S Sensor Chip NA, 29407997, Cytiva) at a flow rate of […] to a surface density of 1000-1500 response units. Analyte was then injected over a series of five concentrations and quantified by BIACORE single-cycle kinetics method. For our selected peptide (B1.1) and the Met9Nle variant a range of 7.5, 15, 30, 60, 120 nM were run. For the linear variant concentrations of 50, 100, 200, 400, 800 nM were run. Binding sonograms were generated using a standard 1:1 binding kinetics model and kinetics constants determined using standard BIACORE evaluation software.

[5] = target: T3, biotinylated B7-H3 (B7-H3b), immune …; test: SPR (BIACORE 8K, single-cycle kinetics, 1:1 fit); biotinylated B7-H3 on a NeutrAvidin chip, peptide as analyte at 7.5-120 nM
Description: FIGS. 4A-4G. (FIG. 4A) Selection schematic detailing the selection process for identifying binders against B7-H3. (FIG. 4B) qPCR results of the mTG mediated B7-H3 selection. (FIG. 4C) B7-H3 selection results and complete NGS analysis of B7-H3 hits. (FIG. 4D) NGS data of the selection hits. […] Arrow indicates the peptide pursued for binding validation. (FIG. 4E) EIC ([M+2], 948.91 m/z) traces corresponding to the product of the mTG reaction with linear B1.1 peptide and the synthetic lactam, disulfide peptide. (FIG. 4F) Surface Plasmon Resonance (SPR) analysis of the selected peptide (B1.1), the Met9Nle variant, and the linear variant. […] The selected B1.1 and the Met9Nle variant were analyzed at analyte concentrations of 7.5, 15, 30, 60, 120 nM. The linear variant was analyzed at analyte concentrations of 50, 100, 200, 400, 800 nM. […] (FIG. 4G) Individual SPR curves. Fitted curve and raw data are shown.
Surface Plasmon Resonance (SPR) analysis. Binding kinetics between our selected peptide (and variants) and biotinylated B7-H3 (B7-H3b) were assessed through SPR analysis using a BIACORE 8K SPR system (GE Healthcare). […] Analyte was then injected over a series of five concentrations and quantified by BIACORE single-cycle kinetics method. […] Binding sonograms were generated using a standard 1:1 binding kinetics model and kinetics constants determined using standard BIACORE evaluation software.

[6] = target: T3, biotinylated B7-H3 (B7-H3b), immune …; test: JP5 alanine mutant library in mRNA display: background screen on beads, then selection on biotinylated B7-H3; NGS, enrichment in the selection over the input library
Description: FIGS. 17A-17B. JP5 alanine mutant library design and screen. (FIG. 17A) Each library member with the parent JP5 sequence on the top. JP5 was mutated at each residue to an Alanine. All library members, and JP5, were screened first against background components (magnetic beads) to remove nonspecific binders and then against biotinylated B7-H3 (see FIG. 14B). […] A value of >1 indicates stronger enrichment in the selection, whereas a value<1 indicates a stronger enrichment in the input library.
A single variant library of JP5 (FIG. 13A) and JP3 (FIG. 14A) was carried out. Each residue was mutated to include potentially 20/20 canonical amino acids. All library members were screened first against background components (magnetic beads) to remove nonspecific binders and then against biotinylated B7-H3 (FIG. 13B). […] The recovered material from the B7-H3 selection of JP5 and JP3 was sent for NGS (FIG. 15 and FIG. 16, respectively). In addition, JP5 was subjected to an alanine mutant scan (FIG. 17A). All library members were screened first against background components (magnetic beads) to remove nonspecific binders and then against biotinylated B7-H3 (see FIG. 13B). […] The selected AMs will be tested with surface plasmon resonance (SPR) to assess binding affinity.

human B7-H3 (hB7-H3) [7] = target: T1, human B7-H3 (hB7-H3); test: SPR
murine B7-H3 (mB7-H3) [8] = target: T2, murine B7-H3 (mB7-H3); test: SPR
human B7-H3 (hB7-H3) [9] = target: T1, human B7-H3 (hB7-H3); test: SPR; reduced (no disulfide bridge)

B1: B1.1, selected cyclic, disulfide peptide (bicyclic: lactam and disulfide), synthetic, without the N-terminal methionine (peptide)
peptide: WALQLCHSMFYTCKSG
modifications: N-terminal acetylation (ac); lactam (isopeptide) bridge Q4-K14; disulfide bond C6-C13
notes: Made by solid phase synthesis on Rink Amide resin; also called Selected B1.1; oxidized B1.1 (with disulfide bridge)
Q: For B1, which Kd (human B7-H3 (hB7-H3) [1]) is on record?
A: 105 nM

Q: What about the koff (human B7-H3 (hB7-H3) [2]) of the same binder?
A: 0.0267 s⁻¹

Q: And the kon (human B7-H3 (hB7-H3) [2])?
A: 253000 M⁻¹ s⁻¹

Q: And the Kd (murine B7-H3 (mB7-H3) [3])?
A: 161 nM

Q: And the koff (murine B7-H3 (mB7-H3) [3])?
A: 0.0176 s⁻¹

Q: And the kon (murine B7-H3 (mB7-H3) [3])?
A: 109000 M⁻¹ s⁻¹

Q: What about the Kd [4] of the same binder?
A: 43.5 nM

Q: And the koff [5]?
A: 0.00674 s⁻¹

Q: What about the kon [5] of the same binder?
A: 155000 M⁻¹ s⁻¹

B2: AM8 (peptide)
peptide: Ac-CWTIRDINATRC-NH2
modifications: bridge 1-12; also: bracket C1-C12, bond type not given here
notes: Member of the JP5 alanine mutant library; also called JP5 alanine mutant 8
Q: Which SELECTION/INPUT [6] does the source give for B2 here?
A: 0.338

B3: AM2 (peptide)
peptide: Ac-CWAIRDINGTRC-NH2
modifications: bridge 1-12; also: bracket C1-C12, bond type not given here
notes: Member of the JP5 alanine mutant library; also called JP5 alanine mutant 2
Q: For B3, which SELECTION/INPUT [6] is on record?
A: 1.4

B4: AM10 (peptide)
peptide: Ac-CWTIRDINGTAC-NH2
modifications: bridge 1-12; also: bracket C1-C12, bond type not given here
notes: Member of the JP5 alanine mutant library; also called JP5 alanine mutant 10
Q: With B4 as the binder, how does the SELECTION/INPUT [6] read?
A: 1.34

B5: AM1 (peptide)
peptide: Ac-CATIRDINGTRC-NH2
modifications: bridge 1-12; also: bracket C1-C12, bond type not given here
notes: Member of the JP5 alanine mutant library; also called JP5 alanine mutant 1
Q: With B5 as the binder, how does the SELECTION/INPUT [6] read?
A: 0.33

B6: AM5 (peptide)
peptide: Ac-CWTIRAINGTRC-NH2
modifications: bridge 1-12; also: bracket C1-C12, bond type not given here
notes: Member of the JP5 alanine mutant library; also called JP5 alanine mutant 5
Q: B6 was tested. Which SELECTION/INPUT [6] did it give?
A: 0.411

Q: Ac-CWTIRDINGTRCG-NH2 (linker 1-12 via DBX; reading uncertain, also called JP5 variant) [JP5, thioether (dibromoxylene) linked macrocyclic peptide from the DBX-mediated B7-H3 selection] was tested. Which Kd (human B7-H3 (hB7-H3) [7]) did it give?
A: 772 nM

Q: And the Kd (murine B7-H3 (mB7-H3) [8])?
A: 591 nM

Q: And the koff (human B7-H3 (hB7-H3) [2])?
A: 0.0966 s⁻¹

Q: And the kon (human B7-H3 (hB7-H3) [2])?
A: 125000 M⁻¹ s⁻¹

Q: And the koff (murine B7-H3 (mB7-H3) [3])?
A: 0.0605 s⁻¹

Q: And the kon (murine B7-H3 (mB7-H3) [3])?
A: 102000 M⁻¹ s⁻¹

B7: AM9 (peptide)
peptide: Ac-CWTIRDINGARC-NH2
modifications: bridge 1-12; also: bracket C1-C12, bond type not given here
notes: Member of the JP5 alanine mutant library; also called JP5 alanine mutant 9
Q: How did the SELECTION/INPUT [6] turn out when B7 was run?
A: 0.422

B8: AM3 (peptide)
peptide: Ac-CWTARDINGTRC-NH2
modifications: bridge 1-12; also: bracket C1-C12, bond type not given here
notes: Member of the JP5 alanine mutant library; also called JP5 alanine mutant 3
Q: How did the SELECTION/INPUT [6] turn out when B8 was run?
A: 0.309

B9: AM7 (peptide)
peptide: Ac-CWTIRDIAGTRC-NH2
modifications: bridge 1-12; also: bracket C1-C12, bond type not given here
notes: Member of the JP5 alanine mutant library; also called JP5 alanine mutant 7
Q: How did the SELECTION/INPUT [6] turn out when B9 was run?
A: 1.53

B10: reduced B1.1 (no disulfide bridge) (peptide)
peptide: WALQLCHSMFYTCKSG
modifications: no disulfide bridge (reduced cysteines C6 and C13); lactam bridge Q4-K14 and N-terminal acetylation as in B1.1
notes: also called reduced form of B1.1
Q: How did the Kd (human B7-H3 (hB7-H3) [9]) turn out when B10 was run?
A: 198 nM

Q: And the koff (human B7-H3 (hB7-H3) [2])?
A: 14.7 s⁻¹

Q: What about the kon (human B7-H3 (hB7-H3) [2]) of the same binder?
A: 7.44e+07 M⁻¹ s⁻¹

B11: AM4 (peptide)
peptide: Ac-CWTIADINGTRC-NH2
modifications: bridge 1-12; also: bracket C1-C12, bond type not given here
notes: Member of the JP5 alanine mutant library; also called JP5 alanine mutant 4
Q: For B11, which SELECTION/INPUT [6] is on record?
A: 0.58

B12: AM6 (peptide)
peptide: Ac-CWTIRDANGTRC-NH2
modifications: bridge 1-12; also: bracket C1-C12, bond type not given here
notes: Member of the JP5 alanine mutant library; also called JP5 alanine mutant 6
Q: With B12 as the binder, how does the SELECTION/INPUT [6] read?
A: 1.99
